Target: recombinant secreted soluble PSCA with C-terminal 6XHis and MYC tag (human)
Test: SPR (BIAcore), recombinant PSCA immobilised at low density (30 RU), mAb in solution

Sequence of recombinant secreted soluble PSCA with C-terminal 6XHis and MYC tag (human) (chain, as listed by the source): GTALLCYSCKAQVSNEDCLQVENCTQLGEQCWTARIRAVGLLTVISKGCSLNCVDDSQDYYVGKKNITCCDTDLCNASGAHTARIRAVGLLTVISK

Kd: 1 nM
kon: 168000 M⁻¹ s⁻¹
Substance: anti-PSCA monoclonal antibody 1G8

Source: US7462691
